Laboratory results from patent US20250049939A1, “NOVEL FLT3 ANTIBODIES AND ANTIBODY-DRUG-CONJUGATES BASED THEREON, THERAPEUTIC METHODS AND USES THEREOF IN COMBINATION WITH TYROSINE KINASE INHIBITORS” (TUBULIS GmbH, priority 2021, published 2025).

What was measured:
[1] = molecular target: T1, recombinant human FLT3 (Homo sapiens, UniProt P36888); assay: ELISA affinity to recombinant human FLT3; format: binding; settings: chimeric Ab clones
T1 construct: purchased Sino Biological 10445-H08H
T1 sequence (P36888 27-541 limits assumed): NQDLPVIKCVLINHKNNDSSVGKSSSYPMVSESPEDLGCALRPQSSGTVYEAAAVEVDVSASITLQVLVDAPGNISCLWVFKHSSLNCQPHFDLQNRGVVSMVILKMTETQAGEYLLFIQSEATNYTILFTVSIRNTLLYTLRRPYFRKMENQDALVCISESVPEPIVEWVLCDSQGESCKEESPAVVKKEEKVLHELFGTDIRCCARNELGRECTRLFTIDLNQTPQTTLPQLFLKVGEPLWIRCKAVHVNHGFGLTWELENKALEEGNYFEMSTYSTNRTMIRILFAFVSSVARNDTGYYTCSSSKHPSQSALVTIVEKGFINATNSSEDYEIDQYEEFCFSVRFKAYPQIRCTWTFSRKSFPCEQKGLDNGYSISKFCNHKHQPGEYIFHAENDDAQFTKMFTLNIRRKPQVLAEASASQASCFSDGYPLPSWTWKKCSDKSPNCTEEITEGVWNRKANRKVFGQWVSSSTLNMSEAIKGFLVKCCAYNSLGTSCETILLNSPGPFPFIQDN
Text: FIG. 1: Evaluation of epitope specificity and internalization capability of anti-FLT3 monoclonal antibodies. (A) Affinity of seven anti-FLT3 monoclonal antibody (mab) clones to recombinant human FLT3 measured in enzyme-linked immunosorbent assay (ELISA) normalized to the binding of the antibodies to BSA control. […] (B) Schematic FLT3 receptor. Black arrows indicate common mutations and blue arrows indicate the three identified epitopes of seven anti-FLT3 antibodies analyzed in linear epitope mapping by PEPperPRINT. Figure was created with BioRender.com. (C) Binding and temperature induced internalization of anti-FLT3 antibodies in Ba/F3 cells expressing human wildtype FLT3. Internalization was induced by incubation for 30 min at 37° C. (grey) compared to 4° C. (black). Remaining surface-bound antibody was detected in flow cytometry. MFI was normalized to control human IgG1 binding. MFI=mean fluorescence intensity. […] (D) Cell surface binding of 20D9 mab or control human IgG1 antibody to Ba/F3 cells stably expressing pMIY (Ba/F3-pMIY) empty vector (ev), human wildtype (hFLT3 wt) or ITD mutant human FLT3 (hFLT3ITD) was measured in flow cytometry. Mean±s.d. of n=3. (E) Temperature induced internalization of 4B12 mab in MOLM-13 (FLT3 positive) cells after 30 min incubation at 37° C. compared to 4° C. and HL-60 (FLT3 negative) after 37° C. incubation assessed in immunofluorescence staining. Red=FLT3 staining by 4B12, Green=membrane staining by Vybrant DiO, Blue=nuclear staining by DAPI. Scale bar 5 μm. Representative pictures are shown. (F) Cell surface binding of 20D9 mab or control hIgG1 antibody to Ba/F3-pMIY ev, hFLT3 wt, murine (mFLT3 wt) or cynomolgues monkey FLT3 (cynoFLT3 wt) was measured in flow cytometry. Mean±s.d. of n=3. (G) Cell surface binding of 20D9 mab or control hIgG1 antibody to Ba/F3-PMIY ev, hFLT3 wt or epitope mutant FLT3 (hFLT3/S50P/P54R) measured in flow cytometry. Mean±s.d. of n=3. (H) Cell surface binding of 20D9 mab or control hIgG1 antibody to Ba/F3-PMIY ev, hFLT3 wt or human CD64 (hCD64) measured in flow cytometry. Mean±s.d. of n=3.
Maxisorp plates were coated with human recombinant FLT3 protein (10445-H08H, Sino Biological). Chimeric (20D9) or humanized anti-FLT3 monoclonal antibodies (in house) and secondary alkaline phosphatase conjugated rabbit anti-human IgG antibody (309-055-008, Jackson Immunoresearch) were used. For detection, Attophos Fluorescent Substrate System (S1000, Promega) was applied. The fluorescence was read with excitation of 405 nm and emission at 500-550 nm. The calculation of the dissociation constant KD was performed using GraphPad Prism version 9.4.0.

[2] = system: MOLM-13 (FLT3 positive) cells; assay: Temperature induced internalization in MOLM-13, flow cytometry; format: cell-based, human; settings: 30 min at 37° C. compared to 4° C.
Protocol: (§1) For antibody binding studies, cells were stained on ice with primary mouse, rat or human anti-FLT3 antibodies (in house) and secondary antibody Goat F(ab′)2 Anti-Human Ig-PE (2012-09), Goat Anti-Mouse IgG (H+L)-PE (1032-09) or Goat Anti-Rat IgG (H+L)-PE (3052-09) purchased from Southern Biotech. For internalization experiments, cells incubated with anti-FLT3 antibodies were washed and incubated for 30 min at 4° C. or 37° C. followed by staining with secondary antibody.

[3] = molecular target: T2, human CD64 (Homo sapiens, UniProt P12314); assay: Cell surface binding to Ba/F3 human CD64, flow cytometry
T2 construct: host or cells: Ba/F3 cells, retrovirally transduced with MSCV-IRES-YFP (pMIY) vector
T2 sequence (P12314 16-374): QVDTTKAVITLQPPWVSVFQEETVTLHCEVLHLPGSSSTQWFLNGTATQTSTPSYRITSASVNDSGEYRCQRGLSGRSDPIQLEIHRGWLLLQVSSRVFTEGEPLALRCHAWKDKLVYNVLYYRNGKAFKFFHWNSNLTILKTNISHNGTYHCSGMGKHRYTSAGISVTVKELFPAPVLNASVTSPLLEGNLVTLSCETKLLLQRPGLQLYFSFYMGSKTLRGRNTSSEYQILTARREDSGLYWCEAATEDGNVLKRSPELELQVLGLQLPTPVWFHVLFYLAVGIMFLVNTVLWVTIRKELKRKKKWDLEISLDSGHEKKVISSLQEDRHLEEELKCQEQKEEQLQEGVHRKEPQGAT
Protocol: as §1
Murine FLT3 (OMu21985D, Genescript), human CD64 (RC207487), CD32 (RC205786) and CD16 (RC206429), were purchased from Origene. Cynomolgues monkey FLT3 gene was synthesized from XM_015439107.1 by Eurofins. The constructs were cloned into retroviral expression vector MSCV-IRES-YFP (pMIY) using the In-Fusion HD Cloning Plus Kit (Takara Bio, Saint-Germain-en-Laye, France). All FLT3 point mutations were generated using the QuikChange II XL Site-Directed Mutagenesis Kit (Agilent Technologies, Santa Clara, CA, USA) and correct sequence was confirmed by Sanger sequencing. […]
For FLT3 expression analysis, cells were stained on ice with primary mouse anti-FLT3-AF647 antibodies for 30 min. […] Binding and expression were subsequently measured at the flow cytometer (BD FACSCanto II) and the results were evaluated with FlowJo version 10.8.1.

Row | Molecule | Affinity Kd [1] [µg/mL] | Internalization in MOLM-13 [2] [%] | Binding to Fc receptor CD64 via the IgG1 backbone [3]
1 | 4B12: chimeric anti-FLT3 antibody from rat; VH SEQ ID NO: 9, VL SEQ ID NO: 10 (antibody, V domains shown, Clone 4B12, heavy chain variable region without a signal sequence; Clone 4B12, light chain variable region without a signal seqeunce) VH: QVQLQQSGPGLVQPSQTLSLTCTVSGFSLTSYNVNWVRQPPGKGLEWIGAMWRGGGTDYNPALKSRLSISRDTSKSQVFLKMNRLQTEDTAIYFCTRGFGDYWGQGVMVTVSSA VL: DIQMTQTPLSLSVAIGQSASISCKSSQSLKYSDGKTYLNWVFQSPGQSPKRLIYQVSKLDSGVPDRFSGTGSETDFTLKISRVEAEDLGVYYCCQGSYSPSTFGAGTKLELKR | 0.03191 | 58 | –
2 | 20D9: chimeric (rat variable regions, human IgG1) anti-FLT3 monoclonal antibody; VH SEQ ID NO: 5, VL SEQ ID NO: 6 (antibody, V domains shown, Clone 20D9, heavy chain variable region without a signal seqeunce; Clone 20D9, light chain variable region without a signal seqeunce) VH: DVMLVESGGGLVQPGRSLKLSCVASGFTFNNYWMTWIRQAPGKGLEWIASITKTGGGTYYPDSVKGRFTISRDNAKSTLYLQMNSLRSEDTATYYCTTLQQLGVMDAWGQGASVTVSSA VL: DVQMTQSPSVLSASVGDRITLNCKASQNINKELNWYQQKLGEAPKLLIYNTNNLQTGIPSRFSGSGSGTDYTLTISSLQPEDVATYFCFQHKSWPLTFGSGTKLEIKR | 0.02188 | 64 | verified the binding
